Assay: soluble on expression in E. coli; label from the status in PepcDB or PDB records

Soluble on expression in E. coli, not soluble:
MGSDKIHHHHHHMDFIEVYPNAIPDELCDRLISTLEQHPGVVDGRTGNGVDIEKKLSRDLTLDSFADLIPLRNELLSHALKGTVEYFDKYSMALMGAVAVKVADNQGQPVTLNPDNYAELGHPRADALVKYLYRSGTINVQKYPKGKGGYPHWHSEQFPQAGHNEALHRVVLYMFYLNDVEEGGETEFFYQGRKLKPQKGTMVIAPAGFTHTHRGNVPVSGDKYIATSWVMFNRAEQLYVVG, MGSDKIHHHHHHMDFMTALDIGASALSAERTSMNITSMNLANAKTTRTIGGGPYRRKAVVMAATEVDDPFSKHMQSALDRELRGVRVQHIVRDNRPFRQVYEPGHPDADANGYVKYPDINVVEEMANLMTSQRGYQASVSTIEAVKSMYTKALEIGRS, MGSDKIHHHHHHMDFRLRQMEIFRSVMLTGSINGAAKLLFISQPAVSRIIAHTEQTLGLKLFNRAKGKLIPTPEGVALFRQVDEFYEHALQVNNFARDLAQGATGTLNLSSSPCLSYTVMPRAIAQFIARYPKIRVVYHTSQLNCMATEVLSNKVDVAVAVMPIQHPNVKVEVFTTGKMACVLPKDHPLGSQTVLSLADVSAYPLIVHHPSITFGKLVSTAFRDAGLEMRSRVNVFQTDVACSLVRAGAGIAIVDEYTACAGAWHDLMQRPLAEPITLTPCIVRSAFDNQATHADKFIEILRGVAHAR, MGSDKIHHHHHHMDHQYTTLERNRYFEVLGGLNVENRGDNKVAMLSELDMTSAQALRTSVDRQTGIKPSYTAIVAKAVSIALREHPYANRMAVERLFWKRILQLHDVHMTIAVERDRPGIEQAVFAGTIRDTDKLDVAAITKELQSLAQSTEETNERWRLLKRMVETLPPALARRLISIPRWLPDQWIKHRGGSVMISSPAKYGVDMMVANWPWPIGYSFGLVKDRVIAVEGAAQVRPTMVLTMSFDRRLMGGAPAARFFRTVCEHIEHAERDMALPVNIPS, MGSDKIHHHHHHMDIRQLTYFIAVAEAKNYSRAAKSLFVTQPTLSQSIKKLEAELNTILFLQNGRQLALTEAGEILYEKGQLLMTNVNQMVTEIQQLNQEKKEGIRVGLTSLFAIQFMKQISTFMATHSNVEVSLIQDGSRKLQELLAKGKIDIGLLSFPSTRNDITIEPLQTSTKGYKVSIVMPKSHPLATLPEIELNDLRDYKVASLNEHYMLGEMLPRKCRALGFDPHIVFKHNDWEVLIHSLQDLNAVTILPSEFESISQVQDLCWVPLKDKNNFYPIGIAYRNDTSFSPMIEEFLSLLKTN, MGSDKIHHHHHHMDKFLYVAMSGAKQNMSALAVRANNLANANTDGFKSDLTQARSMQAFGEGLPSRVFAMTEIATSDFKAGALKTTGRDLDIAVKGDGWIAVQAPDGSEAYTRSGGLKFDNTGLLLNSRNNPVMGNSGPIVLPLPIDKLQISPDGIISIRPQGATAEVIEEVARIKLVNPDNSQMMRGEDGLFRLTSGDVAAKDPSVQVESGAIEASNVNPVEEMVALISIQRQYEMQVKMMKTAEETDQASSSLMRIG, MGSDKIHHHHHHMDKLMKICPTREIELQQKAKQLYEEEENRKIAYNAGLVEAEGYCQYTRLKEIIEFAKKCGYKKIGIAFCIGLKREMQTVQKIFEHHGFEVFSVICKNGAMPKSTIGLEASQTISKCSDEVMCNPIGQALFLNEAKVDLNVILGLCVGHDTLAMKYMEAPITTLVVKDRVTGHNPVAAIYNAESYFEKKLFDKDEE, MGSDKIHHHHHHMDLSNLNEKDMALGCKYCIKGEKLVLYITGLCEESCYYCPLSEKRKKKDVIFANEKQINSIEEAVEEARLCGSKGVGITGGNPLLRIERTVEYLKALKEEFGSDFHAHLYTTPKFVSEKNLKLLKDAGLDEIRLHSSKLFNDFENFDKLDFLEKLKLCKNYIKDVGVEIPGIPNFEKEILDLAFEIDKIGVKFLNINELEYSETNYQSLIDRGFSEKDDTTSRISGSFETAKYIIDNFKGKLIIHFCPSSLKDSVQMKNRLINRARNVAKPYEEITEEGLLLKGTINFKDLKDVSEVLEVLKENDVEFELLNDRLLLNPEILEDLIDHLKENNFDFKFSAYISEYYPTSDKLEVERIPLVTKKPNLKLKKK, MGSDKIHHHHHHMDQARTTTVDHPDRETPFLLFAQHGWDDRSYPIQQMAQSIAPQYSQVYAPNLGRFRTWIAIEPLIQSVEAVVLEAIAQYPDRPLRFLGHSMGGLIWLEVLSRHREWWDRTHSLVLVGSPVSGSDVCRLLDPFGRLPSIAKDLGRNRRPLAEAIAAQIPTASIVSDLGDYSDGLVPVNSSEFERATLVTLKDISHARLKSHPQVADAIAQFWKQPSIAPRPRDRAGTLIAQLRSLNLTECNHRNFAKAAVLKSQPDGVKIWRWLNPLRVQHIFVSSPDPATGRDCCRYAAYTGWLDDAALSKFLEKL, MGSDKIHHHHHHMDQSWVNQAIAKIEADYQRSADTHLIKLELPMLPCIDIYLKDESTHPTGSLKHRLARSLFLYALCNGWITQDTPIIESSSGSTAVSEAYFARLLGLPFIAVMPASTAKKKIQQIEFYGGRCHFVEHSSQIYAESQRLAEELSGHYMDQFTYAERATDWRGNNNIANSIFEQMQREPHPVPSWIVMSPGTGGTSATIGRYIRYQCAKTKLCVVDPENSVFYDYYHSGDASISCAGASRIEGIGRPRAEPSFIPGVVDHMVKIDDSASIATIYWLETLIGRKAGPSTGTNLYGALQLASEMHANGQTGSIVTLLCDSGDRYLDTYYDKQWVDEHIGDITEYQAKLAAFNESGHLE, MGSDKIHHHHHHMDSLGEQPSNRAPVITISSGRYLAQIATYGGGIKSLTYDGRPLVETYPDDAFPPLNAGVVLAPWPNRTDAGAYDFQGQSYQLPITEPDRNNAIHGFVANAVWNIDLIRPARVILSTTIEPQQGWPWAIELAADYLLTDSGLRAQFTATTPHEAVPFGFGWHTYLSAQGAEVDKTTLRVGVDKQWMLDDRNLPTGELVQPTNDVSGGLPMAGKLLDDCFLAERTPVTTVLESQGVGVSMHCSEQFPWFQIFTPDPAWEMPYPGRGRSVAVEPMTTSPNGLNLGIDTIGAASPWHGTITISAYNKHS, MGSDKIHHHHHHMDSNYTKAGYLTEPFKIFHLRDEHKLNIDFHYHDFHKILIHLHGNVSYCIEGRSYELKEHDIVLVNAGEVHKPILNDDSIYERIIIYVSQQLIDDYVSKGYDLACCFKQAYANQSHVLRLAATKGSRLADTIKGLDSTLRETNEYANELYQKLLFLEFLIQLNRITLHGGIEYINTFSSNKKIVEILDFLNKNLTNRISIDELADKFYMSRYHLMHTFKEETGCTIGSYITTKRLLLARDMIRDGSSVSAACDACGFGSYSSFIRAYRKQFHSTPTNT, MGSDKIHHHHHHMDTVNYTHHLSTFVDVVRAGSFSAVARRQGMKPSSIARKIDMLEDYFGAALFVRSTRALMLTDVGEVLVARAEVILNELNAMRVEIKSIKDNLDGPLRISCLPTFGKLHILPWLPKLRENFPRMTVELDLTERIANPSIERLDAVLRIGPLNDSGLYAKTIGVQRWLVCASPAYVGRSGKPAGWSQLAGHAIVDKLHDPAGICWHGALDPQQYSAMSIGFRCNDFDGLRQAALGGLGLAYLPDWVALPDITAGRLVKLFDDSKRGDEPISLLRASSKPSARLQIFHDALLDHLRKFSETGYGVE

Source: the DeepSol protein solubility set
